Target: mannose-6-phosphate receptors (M6PR) (human)
Assay: cell-based or functional assay

Row | Km value, Michaelis-Menten constant that represents a half of the maximum absorption rate (intracellular absorption in CCD986SK cells, read by enzyme activity after 24 hours) [µM] | Substance
1 | 0.0109 | agalsidase-beta (from UniProt P06280 32-429) (enzyme)
2 | 0.0116 | alpha-galactosidase-Fc fusion protein

Reference: patent US20210009984A1
